From patent US8859237B2, “Diguanylate cyclase method of producing the same and its use in the manufacture of cyclic-di-GMP and analogues thereof” (priority 2009, dated 2014)
Positions count from the first letter of the chain named. In names and notes the source's numbering stands. Entries after “also recorded” stand apart in the source; their conditions may differ.

B1: R158A: tDGC diguanylate cyclase domain with I-site arginine 158 replaced by alanine (protein, listed as Thermotoga maritima)
chain: MGSSHHHHHHSSGLVPRGSHMKELEYMAYHDPLTGLPNRRYFFELGNRYLDLAKREGKKVFVLFVDLAGFKAINDTYGHLSGDEVLKTVSKRILDRVARSDVVARYGGDEFTILLYDMKEEYLKSLLERILSTFREPVRVENKHLSVTPNIGVARFPEDGENLEELLKVADMRMYKAKEMKVPYFSLS
modifications: DOMAIN (24)..(181) example of GGDEF domain
notes: tDGC diguanylate cyclase domain with I-site arginine 158 replaced by alanine
B2: R158Q: tDGC diguanylate cyclase domain with I-site arginine 158 replaced by glutamine (protein, listed as Thermotoga maritima)
chain: B1 chain with A98Q
modifications: DOMAIN (24)..(181) example of GGDEF domain
notes: tDGC diguanylate cyclase domain with I-site arginine 158 replaced by glutamine

Key:
[1] = tested on: human colon carcinoma cells; conditions: basal and growth factor-induced; cited from earlier work
Staphylococcus aureus = conditions: exogenous c-di-GMP; incl. methicillin-resistant strains; cited from earlier work
S. aureus = conditions: murine mastitis infection; cited from earlier work
[2] = Diguanylate cyclase (DGC) activity assay and steady-state kinetic measurement (HPLC, GTP to c-di-GMP); type: biochemical, Thermotoga maritima
Method: Enzyme assays were conducted to determine the optimal salt concentration of the DGC reaction, with the buffer that contains 50 mM Tris-HCl (pH 8.0), 20 mM MgCl2, 100 μM GTP, 10 μM Enzyme, and 0-500 mM NaCl. Enzyme assays were conducted to determine the optimal pH concentration of the DGC reaction, with the buffer that contains 50 mM Tris-HCl (pH 7.0-9.0), 250 mM NaCl, 20 mM MgCl2, 100 μM GTP, 10 μM Enzyme. Reaction mixtures were incubated in a waterbath at 55° C. for 15 minutes. After heating at 95° C. for 10 min and centrifugation at 14,000 rpm for 5 min to remove protein precipitate, the supernatant was filtered before loading onto the Eclipse XDB-C18 (4.6×150 mm) column for monitoring the turnover from GTP to c-di-GMP using an Agilent LC1200 system (Mobile phase: 20 mM Triethylammonium bicarbonate (pH 7.0, pH adjusted using acetic acid), 9% Methanol, Flow rate: 1 mL/min). For thermostability analysis, the mutant protein was incubated at 45, 55 and 65° C., aliquots of protein solution were taken out at different time points to add into the reaction mixture that contains 50 mM Tris-Cl (pH 7.5), 250 mM NaCl, 20 mM MgCl2 and 100 μM GTP. The reaction was allowed to last for 10 min before being stopped and analyzed for GTP turnover by using HPLC. For product yield and steady state kinetic measurement, the standard reaction mixture include 50 mM Tris-Cl (pH 8), 20 mM MgCl2, 300 mM NaCl, 1 μM Enzyme, 5-800 μM GTP. Reactions were incubated at 55° C. for 1-60 minutes to obtain linear range of progress. For steady kinetics, data was fitted using GraphPad (Prism) to obtain the kinetic parameters.

[3] = c-di-GMP binding at the I-site of tDGC (absorption spectrum 256 nm peak, HPLC of denatured protein); parameters: species or system Thermotoga maritima; conditions: purified protein, FIG. 1
Method: The observation was surprising since the synthesis of c-di-GMP from two molecules of GTP requires the DGC protein to function in its dimeric form.
However, despite the improved thermostability, we found the overall production yield was low even at high substrate concentration with prolonged incubation.

[4] = Size-exclusion chromatography, oligomeric state in solution; type: physicochemical, Thermotoga maritima; conditions: Superdex 75, 4° C., FIG. 3
Method: Gel filtration was performed at 4° C. using the AKTA FPLC system equipped with a Superdex 75 HR 16/60 column (Amersham Biosciences). The buffer used for gel filtration is comprised of 50 mM Tris-Cl (pH 8.0), 300 mM NaCl, 5% Glycerol, 1 mM DTT. Fractions containing the recombinant protein were concentrated using Amicon concentrator (Millipore) to a final concentration of ca. 5 mg/ml as measured using Bradford assay. Concentrated proteins were stored in −80° C. degree after flash-freeze using liquid nitrogen. Mutant proteins were expressed, purified and stored following the same procedure. The molecular weight and oligomeric state of the protein was estimated based on the standard curve generated by using the standard proteins that include albumin, ovalbumin, chemotrypsinogen, RNase A. The final yield of the recombinant protein was 12-15 mg per liter culture for the wild type the mutant enzyme.

Row | Molecule | effect on cell proliferation [1] | effect on in vitro cell-cell interactions and biofilm formation (Staphylococcus aureus) | effect on colonization and biofilm formation (S. aureus) | NaCl concentration at which the enzyme is most efficient ([2]; 0-500 mM NaCl screened, 55° C., FIG. 4) | GTP concentration above which production yield decreased (substrate inhibition) ([2]; FIG. 2, 55° C.) | pH at which the enzyme is most efficient ([2]; pH 7.0-9.0 screened, 55° C., FIG. 4) | kcat of GTP condensation ([2]; steady-state kinetics, 55° C.) | GTP substrate turned over into c-di-GMP ([2]; under the assay conditions) | c-di-GMP binding / association with the protein [3] | oligomeric form in solution [4]
1 | Nc1nc2c(ncn2[C@@H]2O[C@@H]3COP(=O)(O)O[C@H]4[C@@H](O)[C@H](n5cnc6c(=O)[nH]c(N)nc65)O[C@@H]4COP(=O)(O)O[C@H]3[C@H]2O)c(=O)[nH]1 [c-di-GMP, Bis-(3′-5′)-cyclic dimeric guanosine monophosphate] | inhibiting basal and growth factor-induced proliferation | reduce in vitro cell-cell interactions and biofilm formation | inhibit colonization and biofilm formation |  |  |  |  |  |  | 
2 | B1 |  |  |  | 250 to 300 mM | ca. 0.8 mM | 7.5 | 0.0433 s⁻¹ | ~100% | c-di-GMP is no longer associated with the protein; also recorded: abolished the c-di-GMP binding capability | monomer
3 | B2 |  |  |  |  |  |  |  |  | abolished the c-di-GMP binding capability | 
